Source: patent publication US20200190501

Molecular target: T1, mini-cellulose-binding protein A (mCbpA), P38058
T1 chain: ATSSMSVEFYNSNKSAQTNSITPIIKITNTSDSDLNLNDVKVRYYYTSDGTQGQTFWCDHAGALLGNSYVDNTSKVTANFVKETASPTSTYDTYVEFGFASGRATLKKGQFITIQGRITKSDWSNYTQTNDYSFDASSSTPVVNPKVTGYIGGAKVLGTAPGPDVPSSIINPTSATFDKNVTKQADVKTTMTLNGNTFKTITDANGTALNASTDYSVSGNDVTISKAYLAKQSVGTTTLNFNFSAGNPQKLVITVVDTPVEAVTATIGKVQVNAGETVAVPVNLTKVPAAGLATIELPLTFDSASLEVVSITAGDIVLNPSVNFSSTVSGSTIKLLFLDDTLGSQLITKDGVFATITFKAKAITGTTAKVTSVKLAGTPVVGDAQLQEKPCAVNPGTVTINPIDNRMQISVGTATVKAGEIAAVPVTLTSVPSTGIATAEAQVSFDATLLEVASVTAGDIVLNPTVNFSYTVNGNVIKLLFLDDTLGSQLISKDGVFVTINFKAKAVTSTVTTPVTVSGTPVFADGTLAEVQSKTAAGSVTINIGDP

B1: dockerin-fused chimeric beta-agarase AgaB (AgaB-Doc) (protein)
chain: GDNSKFDSATDLPVEQEQEQETEQEGEPEESSEQDLVEEVDWKDIPVPADAGPNMKWEFQEISDNFEYEAPADNKGSEFLEKWDDFYHNAWAGPGLTEWKRDRSYVADGELKMWATRKPGSDKINMGCITSKTRVVYPVYIEARAKVMNSTLASDVWLLSADDTQEIDILEAYGADYSESAGKDHSYFSKKVHISHHVFIRDPFQDYQPKDAGSWFEDGTVWNKEFHRFGVYWRDPWHLEYYIDGVLVRTVSGKDIIDPKHFTNTTDPGNTEIDTRTGLNKEMDIIINTEDQTWRSSPASGLQSNTYTPTDNELSNIENNTFGVDWIRIYKPVEKVNKDGKVNAIDYAVLKSILLGTNTNVDLSVSDMNKDGKVNALDLAVLKKMLLS
degradation activity using purified agar as a substrate: the degradation activity increased in the order of agarase, agarase-expansin, and agarase-expansin-mCbpA
